Assay results as given in the MegaScale stability set (Tsuboyama et al. 2023).

B1: HEEH_KT_rd6_3632 (parent)
chain: DAEELIELVERALKEGREIILLGVRITSEEAGKWFIEWIRRFL
B2: EEHEE_rd4_0363 (parent)
chain: VTVDIKGMEYHFDNPEEAKKFAERMAKELGGELKVENGTLKVE

Variants of: B1
Experiment: folding stability dG (cDNA display proteolysis); higher = more stable
Conditions: PBS, room temperature

Folding stability dG [kcal/mol], by site and new letter:
R11: A 3.52; V 3.37; W 3.66; H 3.45; D 3.28; N 3.51; L 3.47; E 3.38; K 3.65; T 3.62; Q 3.54; Y 3.15; I 3.62; S 3.32; F 3.16; P 3.08; M 3.41; G 3.19
A12: I 3.73; T 3.3; D 2.84; P 2.88; Q 3.17; K 3.08; N 3.13; V 3.55; M 3.56; H 3.35; R 3.17; L 3.74; E 3.09; G 3.21; F 3.42; S 3.31; W 3.76; Y 3.33
E4: I 4.06; N 3.78; Y 4.24; K 4.18; M 4.01; A 3.96; T 4.03; P 3.64; D 3.65; V 3.91; R 4.21; H 4.09; G 3.92; Q 3.95; F 4.15; S 3.89; W 4.19; C 4.61; L 4.1
D1: N 3.96; G 3.9; S 3.98; M 4.11; R 4.12; V 4.07; F 4.2; H 4.04; I 4.2; T 4; L 4.31; W 4.64; K 4.04; Y 4.26; Q 3.93; P 3.89; E 3.63; A 3.97
E3: V 3.78; Q 3.94; I 3.85; L 3.97; W 4.15; K 3.8; R 4.16; G 3.69; N 3.87; M 3.73; P 3.46; T 3.83; F 4.06; D 3.85; A 3.87; H 4.02; Y 4.02; S 3.74
L13: E 2.96; V 3.54; K 3.07; Q 2.95; R 3.1; C 4.96; W 3.43; F 3.42; I 3.87; D 2.97; A 3.14; H 2.99; S 3.08; M 3.67; Y 3.28; N 2.88; T 3.25; P 2.88; G 2.96
V9: M 3.45; A 3.19; P 2.93; Q 2.7; H 2.85; F 3.37; D 2.93; G 2.81; L 3.59; R 2.87; C 4.04; Y 2.87; T 3.09; I 3.79; K 2.75; W 3.15; E 2.87; S 2.75; N 2.91
R17: W 3.75; F 3.63; M 3.6; S 3.27; Y 3.84; L 3.9; V 3.79; A 3.6; T 3.45; K 3.59; I 3.85; E 3.23; P 3.36; G 3.3; N 3.3; Q 3.27; H 3.54; D 2.99
K14: Y 3.31; D 3.25; N 3.52; R 3.86; G 3.5; A 3.73; H 3.49; L 3.79; F 3.39; T 3.42; I 3.6; W 3.5; E 3.54; S 3.62; V 3.5; Q 3.56; M 3.48; P 3.27
L8: P 2.77; N 2.93; K 3.46; Y 3.49; A 3.47; V 3.26; Q 3.49; R 3.53; D 2.92; M 3.69; S 3.08; W 3.7; I 3.61; H 3.26; G 3.03; T 3.28; F 3.77; E 3.29
E10: C 4.65; V 3.99; G 3.28; M 3.84; L 4.16; S 3.62; I 4.3; Q 3.83; F 3.69; K 3.93; T 3.92; W 4.21; A 3.63; Y 3.81; N 3.82; D 3.41; H 3.78; P 2.64; R 4.03
L5: P 2.82; A 2.97; I 3.44; E 2.77; T 3.08; G 2.88; H 2.83; K 2.83; D 3.02; W 3.67; Q 2.83; Y 3.47; R 2.79; F 3.6; C 3.74; V 3.23; M 3.56; S 2.85; N 2.72
E18: R 3.79; M 3.66; Q 3.74; L 3.83; N 3.69; A 3.74; I 4.02; P 3.64; F 3.87; K 3.55; G 3.58; H 3.85; D 3.44
E15: N 3.57; A 3.7; Q 3.46; G 3.31; D 3.7; P 3.21; S 3.73; W 3.95; H 3.54; M 3.68; I 3.62; T 3.48; V 3.57; K 3.45; Y 3.67; F 3.64; R 3.38; L 3.58
A2: P 3.65; G 3.42; I 4.2; M 3.92; E 3.44; W 4.53; D 3.4; F 4.2; V 4.05; L 4.31; T 3.62; K 3.5; Y 4.2; Q 3.55; S 3.42; N 3.4; H 3.66; R 3.54
E7: R 4.18; H 3.84; P 3.1; W 3.83; L 3.91; Y 3.77; V 3.74; D 3.7; A 3.99; Q 3.79; S 3.88; F 3.74; N 3.89; C 4.46; G 3.89; T 3.82; M 3.82; I 3.79; K 4.05
I6: V 3.48; Q 3.16; H 3.29; L 3.62; S 3.18; G 3.18; T 3.25; E 3.18; A 3.38; W 3.99; P 3.08; D 3.2; F 3.48; M 3.3; Y 3.38; N 3.11; K 3.24; C 3.95; R 3.38
G16: Q 3.42; N 3.58; K 3.53; P 3.26; F 3.97; R 3.44; W 4; T 3.36; L 4.32; E 3.1; A 3.84; S 3.49; D 3.07; Y 3.67; M 4.09; H 3.58; I 4.25; C 4.34; V 3.74

Variants of: B2
Experiment: as above
Conditions: PBS, room temperature

Folding stability dG [kcal/mol]: each site, then its substitutions
E32: G 1.4
V35: G 1.2
I5: D 0.025
K20: W 1.67
K19: Q 2.17
K27: T 1.7
R24: V 1.35
